Test results reported in patent publication US20090118194A1, “Measurement of melanocortin peptides and uses thereof” (Auckland UniServices Limited, priority 2002, published 2009).
“Also recorded” adds a separate entry of the source.

Tested on: primary rat osteoblasts
Experiment: Primary rat osteoblast proliferation assay ([3H]thymidine incorporation, cell number)
Format: cell-based
Excerpt: Primary rat osteoblasts were isolated from 20 day fetal rat calvariae. (The use of animals for these studies was approved by the Auckland Animal Ethics Committee.) Calvariae were excised and the frontal and parietal bones, free of suture and periosteal tissue, were collected and sequentially digested using collagenase as previously described (Cornish J, Callon K E, Lin C Q X, Xiao C L, Mulvey T B, Cooper G J S, Reid I R Trifluoroacetate, a contaminant in puritied proteins, inhibits proliferation of osteoblasts and chondrocytes. Amer J Physiol Endocrinol Metab 277: E779-E783, 1999). Primary rat osteoblasts were grown in DMEM supplemented with 10% FCS, 50 U/ml penicillin and 50 μg/ml streptomycin. After 48 hour, the medium was changed to MEM. Confluence was reached within 5-6 days, at which time the cells were subcultured into 10 cm culture plates for RNA preparation or 24 well plates for proliferation assays.
Primary rat osteoblasts were subcultured into 24 well plates at a density of 5×10^4 cells/ml/well in MEM, 5% FCS for 24 hours. Cells were growth arrested in MEM, 0.1% bovine serum albumin (BSA) for 24 hour and then fresh media and experimental compounds were added for a further 24 hours. Cells were pulsed with [^3H]thymidine (0.5 μCi/well) 2 hours before the end of the experimental incubation. The experiment was terminated and both cell numbers and thymidine incorporation were assessed. Cell numbers were analysed by detaching cells from the wells by exposure to trypsin/EDTA (0.05%/0.53 mM) for approximately 5 minutes at 37° C. Counting was performed in a hemocytometer chamber. Results are expressed per well. [^3H]Thymidine incorporation was analysed by washing the cells in MEM followed by the addition of 10% trichloroacetic acid. The precipitate was washed twice with ethnol:ether (3:1) and the wells desiccated at room temperature. The residue was dissolved in 2M KOH at 55° C. for 30 minutes, neutralized with 1M HCl, and an aliquot counted for radioactivity. Results are expressed as dpm per well. Each experiment was performed at least three times using experimental groups consisting of at least six wells.
Data are presented as mean±SEM. The significance of differences between groups was determined using Student's t tests for unpaired data and a 5% significance level. The comparisons to be made in each experiment were specified a priori, so no adjustment for multiple comparisons was necessary. Where several experiments have been shown in one figure, the data are expressed as the ratio of results in treatment groups to those in the control group and the ‘P’ values shown were calculated using the data from the individual experiments, before the data were pooled.

Q: For “ACTH1-24: melanocortin peptide purchased from Bachem California (SYSMEHFRWGKPVGKKRRPVKVYP; Corticotropin; UniProt P01189 138-161, looked up, fragment)”, which “antagonism of α-MSH stimulated [3H] thymidine uptake” value (10^−7 M against α-MSH 10^−8 M and 10^−7 M, growth arrested primary rat osteoblasts) is on record?
A: Its value is “inhibited two doses of α-MSH (10^−8 M and 10^−7 M) from stimulating [^3H] thymidine uptake; also recorded: antagonise α-MSH stimulated stimulation of thymidine incorporation”.

Q: What about the “thymidine incorporation or cell numbers (proliferation)” value (growth arrested primary rat osteoblasts, 10^−7 M, alone) of the same molecule?
A: The value was “did not stimulate thymidine incorporation or cells numbers; also recorded: no significant effect on osteoblast proliferation”.

B1: agouti protein: recombinant mouse agouti protein, antagonist of melanocortin peptides coupling MC1-R, MC2-R, and MC4-R (protein, UniProt Q03288 23-131, looked up)
Agouti-signaling protein: HLALEETLGDDRSLRSNSSMNSLDFSSVSIVALNKKSKKISRKEAEKRKRSSKKKASMKKVARPPPPSPCVATRDSCKPPAPACCDPCASCQCRFFGSACTCRVLNPNC
Q: For B1, which “antagonism of α-MSH stimulated osteoblast proliferation” value (agouti protein 10^−9 M-10^−7 M, primary rat osteoblasts) is on record?
A: Its value is “did not antagonise α-MSH stimulated osteoblast proliferation”.

Q: What about the thymidine incorporation (growth arrested primary rat osteoblasts, 10^−9-10^−7 M, alone) of the same molecule?
A: The thymidine incorporation was “significantly stimulated thymidine incorporation”.

Q: And the “additivity with α-MSH stimulated thymidine incorporation” value (primary rat osteoblasts)?
A: Its value is “not additive”.
